Laboratory results published in patent US20200071424A1 (SHIONOGI, published 2020).
Like-named read-outs stand apart in the source and are kept apart here.

T1: human [1-305]-mouse chimeric EL (human; mouse, UniProt Q9WVG5 306-500)
T1 sequence: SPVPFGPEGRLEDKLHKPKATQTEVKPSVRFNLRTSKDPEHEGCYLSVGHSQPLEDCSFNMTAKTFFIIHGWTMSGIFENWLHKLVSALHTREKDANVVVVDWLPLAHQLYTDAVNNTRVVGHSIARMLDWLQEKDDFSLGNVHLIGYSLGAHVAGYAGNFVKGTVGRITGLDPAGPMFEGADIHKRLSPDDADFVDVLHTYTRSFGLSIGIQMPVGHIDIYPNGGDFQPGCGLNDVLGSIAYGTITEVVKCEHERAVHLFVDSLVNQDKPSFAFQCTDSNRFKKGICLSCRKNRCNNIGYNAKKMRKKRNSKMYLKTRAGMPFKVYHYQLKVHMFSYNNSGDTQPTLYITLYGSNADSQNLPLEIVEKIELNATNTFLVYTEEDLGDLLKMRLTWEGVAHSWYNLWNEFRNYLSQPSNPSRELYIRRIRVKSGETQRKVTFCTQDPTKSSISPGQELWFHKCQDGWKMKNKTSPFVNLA

T2: mouse EL (mouse, UniProt Q9WVG5 21-500)
T2 construct: Heparin extract
T2 sequence (looked up): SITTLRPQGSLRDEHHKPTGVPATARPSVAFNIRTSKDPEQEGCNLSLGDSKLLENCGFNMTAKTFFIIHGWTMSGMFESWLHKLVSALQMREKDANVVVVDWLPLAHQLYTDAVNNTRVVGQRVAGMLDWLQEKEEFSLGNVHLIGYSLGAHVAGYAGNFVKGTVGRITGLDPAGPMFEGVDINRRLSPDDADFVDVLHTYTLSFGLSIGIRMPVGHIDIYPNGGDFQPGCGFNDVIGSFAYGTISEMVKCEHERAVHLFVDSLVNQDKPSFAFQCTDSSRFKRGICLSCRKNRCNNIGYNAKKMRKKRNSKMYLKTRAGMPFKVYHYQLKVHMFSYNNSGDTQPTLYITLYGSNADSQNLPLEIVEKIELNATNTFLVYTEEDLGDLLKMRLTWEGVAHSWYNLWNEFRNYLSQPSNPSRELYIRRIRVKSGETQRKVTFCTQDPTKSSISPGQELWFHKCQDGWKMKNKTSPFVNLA

T3: human [1-157]-mouse chimeric EL (human; mouse, UniProt Q9WVG5 158-500)
T3 construct: Heparin extract, detected by an anti-C2-tag antibody
T3 sequence: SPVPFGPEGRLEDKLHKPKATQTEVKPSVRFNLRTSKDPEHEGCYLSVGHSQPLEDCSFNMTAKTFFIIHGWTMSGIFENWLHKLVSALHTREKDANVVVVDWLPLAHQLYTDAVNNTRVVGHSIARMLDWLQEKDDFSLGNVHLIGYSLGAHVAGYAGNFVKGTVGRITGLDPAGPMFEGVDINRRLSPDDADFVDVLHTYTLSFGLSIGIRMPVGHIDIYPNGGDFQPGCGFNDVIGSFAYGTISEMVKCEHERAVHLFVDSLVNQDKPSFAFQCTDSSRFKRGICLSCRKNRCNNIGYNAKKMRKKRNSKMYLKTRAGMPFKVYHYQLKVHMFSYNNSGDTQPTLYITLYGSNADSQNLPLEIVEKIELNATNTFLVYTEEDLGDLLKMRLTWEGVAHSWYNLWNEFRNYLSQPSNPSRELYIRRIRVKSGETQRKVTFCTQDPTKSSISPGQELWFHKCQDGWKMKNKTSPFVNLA


Key:
baboon EL [1] = biological target: baboon EL (baboon); assay: cell-based or functional assay
cynomolgus monkey EL [2] = biological target: cynomolgus monkey EL (cynomolgus monkey); assay: cell-based or functional assay
[3] = biological target: human-mouse chimeric EL (construct not specified); assay: cell-based or functional assay
[4] = biological target: T1, human [1-305]-mouse chimeric EL; assay: cell-based or functional assay
cynomolgus monkey EL [5] = biological target: cynomolgus monkey EL (cynomolgus monkey); assay: cell-based or functional assay; remark: listed apart in the source
baboon EL [6] = biological target: T4, baboon EL (baboon); assay: Biacore; EL captured by anti-C2-tag Ab; bivalent fit
T4 construct: Heparin extract
Experimental: (§1) The binding affinities of anti-EL antibodies were measured using Biacore. […] Then, anti-EL antibodies were added and the binding affinities were calculated by bivalent fitting of BIAevaluation software.

cynomolgus monkey EL [7] = biological target: T5, cynomolgus monkey EL (cynomolgus monkey); assay: as above
T5 construct: Heparin extract; also called cynomolgus EL; Cynomolgus EL
Experimental: as §1

[8] = biological target: T1, human [1-305]-mouse chimeric EL; assay: as above
Experimental: as §1

baboon EL [9] = biological target: T4, baboon EL; assay: ELISA: antibody captured on anti-mouse IgG-Fc plate, EL heparin extract added, detection with biotin anti-C2-tag antibody and HRP-streptavidin, A450
Experimental: (§2) Assay buffer containing 15 μl of anti-EL antibody was added to anti-mouse IgG-Fc antibody-immobilized microtiter plate, and incubated for 2 hr. […] After washing the wells three times with 90 μL of washing buffer, 15 μl of assay buffer containing biotin-labeled anti-C2-tag antibody and HRP-labeled Streptavidin were added to the wells and incubated at room temperature for 1 hr. After washing the wells three times with 90 μL of washing buffer, 15 μL of TMB+—Substrate—Chromogen (DAKO) was added and incubated at room temperature for 30 min and then 15 μL of 0.05 M H2SO₄ was added and absorbance at 450 nm was measured (FIG. 3A to 3K).

cynomolgus monkey EL [10] = biological target: T5, cynomolgus monkey EL; assay: as above
Experimental: as §2

mouse EL = biological target: T2, mouse EL; assay: as above
Experimental: as §2

[11] = biological target: T3, human [1-157]-mouse chimeric EL; assay: as above
Experimental: as §2

[12] = biological target: T1, human [1-305]-mouse chimeric EL; assay: Biacore; EL captured by anti-C2-tag Ab; bivalent fit; remark: listed apart in the source
Experimental: The binding affinities of anti-EL antibodies were measured using Biacore. […] Then, anti-EL humanized antibodies were added and the binding affinities were calculated by bivalent fitting of BIAevaluation software.

Row | Binder | Neutralizing activity IC50 (baboon EL [1]) [nM] | Neutralizing activity IC50 (cynomolgus monkey EL [2]) [nM] | Neutralizing activity IC50 [3] [nM] | Neutralizing activity IC50 [4] [nM] | Kd (baboon EL [6]) [nM] | koff (baboon EL [6]) [s⁻¹] | kon (baboon EL [6]) [M⁻¹ s⁻¹] | Kd (cynomolgus monkey EL [7]) [nM] | koff (cynomolgus monkey EL [7]) [s⁻¹] | kon (cynomolgus monkey EL [7]) [M⁻¹ s⁻¹] | Kd [8] [nM] | koff [8] [s⁻¹] | kon [8] [M⁻¹ s⁻¹] | EC50 (read off the curve) (baboon EL [9]) [ng/mL] | EC50 (read off the curve) (cynomolgus monkey EL [10]) [ng/mL] | binding result (mouse EL) | EC50 (read off the curve) [11] [ng/mL] | also measured
1 | 55A1 (antibody, mouse IgG2a, V domains shown, mouse IgG2a from hybridoma; also called 55A1 (mouse mAb)) VH: QIHLVQSGPELKKPGETVKISCKASGYTFTNYGMNWVKQAPGKGLKWMGWINTYSGVPTYAGDFKGRFAFSLETSASTAYLQINNLKNEDTATYFCARRGYYGRRYFDVWGTGTTVTVSS VL: DIVLTQSPASLAVSLGQRATISCKASQSVDYDVDSYMHWYQQKPGQPPKLLIYAASNLASGIPARFSGGGSGTDFTLNIHPVEEEDVATYYCQQTIEDPPTFGGGTKLEIK | 2 | 1.5 | 1.1 | 1.1 | 1.2 | 0.00042 | 350000 | 1.7 | 0.00044 | 250000 | 0.73 | 0.00014 | 190000 | ~10 | ~5 | no binding (tested: about 330 ng/mL) | ~4 | Neutralizing activity IC50 (cynomolgus monkey EL [5]): 1.3 nM
2 | 14A1 (antibody, mouse IgG1, V domains shown, mouse IgG1 from hybridoma) VH: QIQLVQSGPELKKPGETVKISCKASGYTFTNYGMNWVKQAPGKGLKWMGWINTYSGVPTYADDFKGRFAFSLETSASTAYLQINNFKNEDTATYFCARFSYYGRHYFDYWGQGTALTASS VL: DIVLTQSPASLAVSLGQRATISCKASQSVDYDGDSYMNWYQQKPGQPPKLLIYAASNLKSGIPARFSGSGSGTDFTLNIHPVEEEDAATYYCQQTTDDPPWTFGGGTKLEIK | 2.7 | 3.1 | 5.8 |  | 3.3 | 0.00062 | 190000 | 3.9 | 0.00081 | 210000 | 0.5 | 0.0001 | 210000 |  | ~20 | no binding (tested: about 330 ng/mL) | ~7 | 
3 | 2D5 (antibody, mouse IgG2a, V domains shown, mouse IgG2a from hybridoma) VH: QIQLVQSGPELKKPGETVKISCKASGYTFTNYGMNWVKQAPGKGLKWMGWINTYSGVPTYTDDFKGRFAFSLETSASTAFLQINNLKNEDTATYFCARFSYYGRHYFDYWGQGTTLTVSS VL: not shown | 2.9 | 3 | 2.7 |  | 2.2 | 0.00017 | 77000 | 3.8 | 0.00028 | 74000 | 1.1 | 9.3e-05 | 85000 | ~20 | ~10 | no binding (tested: about 330 ng/mL) | ~8 | 
4 | 7D4 (antibody, mouse IgG1, V domains shown, mouse IgG1 from hybridoma) VH: QIQLVQSGPELKKPGETVKISCKASGYTFTNYGMNWVKQAPGKDLKWMGWINTYSGVPTYADDFKGRFAFSLETSASTAYLQINNLKNEDTATYFCARFSYYGRHYFDYWGQGTTLTVSS VL: DIVLTQSPASLAVSLGQRATISCKASQSVDYDGDSYMNWYQQKPGQPPQLLIYAASNLGSGIPARFSGSGSGTDFTLNIHPVEEEDAATYYCHQSTDDPPWTFGGGTKLEIK | 2.6 | 2.1 | 3.7 |  | 4.5 | 0.00035 | 78000 | 1.9 | 0.00023 | 120000 | 0.97 | 0.00011 | 110000 | ~9 | ~10 | no binding (tested: about 330 ng/mL) | ~6 | 
5 | h53A11-S4 (antibody, V domains shown) VH: QVQLVQSGAEVKKPGASVKVSCKASGYTFTDYTMHWVRQAPGQRLEWMGGINPYYGGTTYNEKFKDRVTITRDTSASTAYMELSSLRSEDTAVYYCARGDYYGGSYNYWGQGTTVTVSS VL: EIVMTQSPATLSVSPGERATLSCRASQDISNSLHWYQQKPGQAPRLLIKYASQSISGIPARFSGSGSGTEFTLTISSLQSEDFAVYYCQQSNSWPYTFGQGTKLEIK |  |  |  |  |  |  |  |  |  |  |  |  |  |  |  |  |  | Neutralizing activity IC50 (cynomolgus monkey EL [5]): 12 nM
6 | h55A1-F4 (antibody, V domains shown, humanized) VH: QVQLVQSGAEVKKPGASVKVSCKASGYTFTNYGMNWVRQAPGQGLEWMGWINTYSGVPTYAGDFKGRVTMTTDTSTSTAYMELRSLRSDDTAVYYCARRGYYGRRYFDVWGKGTTVTVSS VL: EIVLTQSPGTLSLSPGERATLSCKASQSVDYDVDSYMHWYQQKPGQAPRLLIYAASNLASGIPDRFSGSGSGTDFTLTISRLEPEDFAVYYCQQTIEDPPTFGGGTKVEIK |  |  |  | 2.4 |  |  |  |  |  |  |  |  |  |  |  |  |  | Kd [12]: 0.22 nM; koff [12]: 3e-05 s⁻¹; kon [12]: 140000 M⁻¹ s⁻¹
7 | h55A1-F6 (antibody, V domains shown, humanized) VH: QVQLVQSGAEVKKPGASVKVSCKASGYTFTNYGMNWVRQAPGQGLEWMGWINTYSGVPTYAGDFKGRFTFTLDTSTSTAYMELSSLRSEDTAVYYCARRGYYGRRYFDVWGKGTTVTVSS VL: EIVMTQSPATLSVSPGERATLSCKASQSVDYDVDSYMHWYQQKPGQAPRLLIYAASNLASGIPARFSGSGSGTEFTLTISSLQSEDFAVYYCQQTIEDPPTFGGGTKVEIK |  |  |  | 2.3 |  |  |  |  |  |  |  |  |  |  |  |  |  | Kd [12]: 0.3 nM; koff [12]: 4.8e-05 s⁻¹; kon [12]: 160000 M⁻¹ s⁻¹
